In the supplement of paper PMC12667976:
± gives the standard error.

B1: library; numbered along this chain (parent)
chain: MATDAALRRLLRLHRTEIAVAVDSAFPLLHALADHDVVPEDKFQETLHLKEKEGCPQAFHALLSWLLTQDSTAILDFWRVLFKDYNLERYGRLQPILDSFPKDVDLSQPRKGRKPPAVPKALVPPPRLPTKRKASEEARAAAPAALTPRGTASPGSQLKAKPPKKPESSAEQQRLPLGNGIQTMSASVQRAVAMSSGDVPGARGAVEGILIQQVFESGGSKKCIQVGGEFYTPSKFEDSGSGKNKARSSSGPKPLVRAKGAQGAAPGGGEARLGQQGSVPAPLALPSDPQLHQKNEDECAVCRDGGELICCDGCPRAFHLACLSPPLREIPSGTWRCSSCLQATVQEVQPRAEEPRPQEPPVETPLPPGLRSAGEEVRGPPGEPLAGMDTTLVYKHLPAPPSAAPLPGLDSSALHPLLCVGPEGQQNLAPGARCGVCGDGTDVLRCTHCAAAFHWRCHFPAGTSRPGTGLRCRSCSGDVTPAPVEGVLAPSPARLAPGPAKDDTASHEPALHRDDLESLLSEHTFDGILQWAIQSMARPAAPFPS

Variants of: B1
Assay: AIRE transcriptional activation functional score (insulin promoter-GFP; nonsense median 0, synonymous median 1) (normalised score); higher = higher AIRE activity (more reporter activation)
Settings: with insulin promoter-GFP reporter in HEK293
Description: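 Deep mutational scan of full-length human AIRE (codon-optimized cDNA, DT-POPCode NNN libraries over three regions) integrated at a Bxb1 landing pad in HEK293 cells carrying an insulin core promoter-GFP reporter at a Flp-In site. Cells were sorted for the top 10% GFP about 14 days after transfection. Variant frequency log-ratios (select vs non-select, TileSeq) were rescaled so that the nonsense median is 0 and the synonymous median is 1, then averaged over biological replicates.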

AIRE transcriptional activation functional score of substitutions, site by site:
R257: I 0.805 ± 0.25, N -1.39 ± 0.2, C -0.159 ± 0.18, S 0.904 ± 0.32, D 1.16 ± 0.094, A 0.916 ± 0.36, M 0.588 ± 0.062, V 0.256 ± 0.14, K 0.866 ± 0.11, Q 0.729 ± 0.17, P 0.935 ± 0.26, G 0.771 ± 0.33, E 1.12 ± 0.33, F 0.785 ± 0.1, W 0.743 ± 0.19, L 0.834 ± 0.23, T 0.86 ± 0.26
V256: W 1.37 ± 0.027, R 0.207 ± 0.45, D 0.705 ± 0.26, T 0.8 ± 0.3, P 0.878 ± 0.24, M 0.911 ± 0.082, I 0.599 ± 0.084, A 1.16 ± 0.34, Y 1.39 ± 0.17, H 0.851 ± 0.23, F 1.33 ± 0.23, Q 0.671 ± 0.27, E 0.8 ± 0.15, L 0.974 ± 0.23, C 0.771 ± 0.33, N 0.685 ± 0.49, G 1.05 ± 0.24, S 1.07 ± 0.23, K 0.102 ± 0.38
P252: T 0.961 ± 0.079, F 0.977 ± 0.083, G 0.0827 ± 0.056, Q 0.904 ± 0.34, V 1.35 ± 0.25, D 0.862 ± 0.034, Y 0.649 ± 0.21, M 1.88 ± 0.082, I 0.937 ± 0.16, H 0.544 ± 0.15, N 1.41 ± 0.035, A 1.02 ± 0.24, S 1.03 ± 0.18, C 0.763 ± 0.089, L 1.15 ± 0.28, R 0.567 ± 0.33, W 0.608 ± 0.056
K259: G -0.585 ± 0.16, W 1.19 ± 0.089, S 0.917 ± 0.14, H 0.439 ± 0.14, M 1.2 ± 0.096, Y 1.31 ± 0.23, E 0.714 ± 0.14, D -0.753 ± 0.084, C 1.33 ± 0.045, R 0.916 ± 0.19, Q 0.922 ± 0.061, A 1.23 ± 0.051, L 0.941 ± 0.35, I 0.551 ± 0.072, T 0.966 ± 0.32, N 1.03 ± 0.069, F 1.08 ± 0.035, P 0.82 ± 0.18
P254: T 0.737 ± 0.27, E 0.818 ± 0.2, I 0.86 ± 0.25, V 1.27 ± 0.26, M 0.826 ± 0.054, W 1.07 ± 0.05, Q 1.2 ± 0.15, H 0.946 ± 0.19, R 0.606 ± 0.37, S 0.995 ± 0.39, K 0.683 ± 0.3, N -0.115 ± 0.07, L 1.01 ± 0.3, A 0.885 ± 0.26, Y 1.28 ± 0.062, D 0.547 ± 0.13, F 0.266 ± 0.23, G 0.342 ± 0.34, C 1.24 ± 0.51
S250: W 0.939 ± 0.071, Y 1.26 ± 0.29
A258: F 1.19 ± 0.16, I 0.643 ± 0.33, M 0.409 ± 0.07, D 0.387 ± 0.22, W 1.05 ± 0.052, Q 0.586 ± 0.085, S 0.657 ± 0.26, G 0.943 ± 0.19, V 1.36 ± 0.27, H 1.05 ± 0.11, T 0.978 ± 0.33, L 0.814 ± 0.13, P 1.23 ± 0.13, C 1.18 ± 0.19, R 0.0043 ± 0.35, E 1.13 ± 0.18
K253: D -0.542 ± 0.09, G 0.631 ± 0.2, S 0.754 ± 0.35, F 0.823 ± 0.3, P 0.292 ± 0.33, T 0.479 ± 0.19, C 1.39 ± 0.044, A 1.28 ± 0.23, I 0.921 ± 0.25, E 0.587 ± 0.27, V 0.867 ± 0.22, N 0.817 ± 0.22, M 1.04 ± 0.18, R 0.777 ± 0.38, L 0.694 ± 0.29, Q 1.95 ± 0.1, Y 0.499 ± 0.15, W 1.23 ± 0.048
G251: W 1.36 ± 0.093, E 1.44 ± 0.14, M 0.603 ± 0.14, P -0.0792 ± 0.35, R 0.585 ± 0.39, V 1.22 ± 0.28, N -0.159 ± 0.13, K 1.05 ± 0.051, Q 0.448 ± 0.19, A 0.845 ± 0.12, T 1.09 ± 0.15, F 1.2 ± 0.13, I 1.2 ± 0.27, S 0.796 ± 0.22, L 1.21 ± 0.22, Y 1.42 ± 0.24, D 1.2 ± 0.26, H 1.02 ± 0.059, C 0.932 ± 0.18
G260: E 1.03 ± 0.07, A 0.8 ± 0.44, C 1.01 ± 0.12, D 0.772 ± 0.12
L255: H 1.28 ± 0.12, A 0.9 ± 0.5, S 0.79 ± 0.25, E 0.58 ± 0.065, Q 1.01 ± 0.26, M -0.804 ± 0.072, T 0.506 ± 0.39, Y 0.945 ± 0.21, R 0.419 ± 0.21, D 0.362 ± 0.098, I 0.98 ± 0.29, P 1.03 ± 0.26, F 1.43 ± 0.15, G 1.24 ± 0.31, W 1.1 ± 0.054, N 0.614 ± 0.2, C 0.506 ± 0.13, V 1 ± 0.28
